B1: IMP-1 (Serratia marcescens) (protein)
chain: TAAESLPDLKIEKLDEGVYVHTSFEEVNGWGVVPKHGLVVLVNAEAYLIDTPFTAKDTEKLVTWFVERGYKIKGSISSHFHSDSTGGIEWLNSRSIPTYASELTNELLKKDGKVQATNSFSGVNYWLVKNKIEVFYPGPGHTPDNVVVWLPERKILFGGCFIKPYGLGNLGDANIEAWPKSAKLLKSKYGKAKLVVPSHSEVGDASLLKLTLEQAVKGLNESKKPSKPSN
B2: NDM-1 (Klebsiella pneumoniae) (protein)
chain: METGDQRFGDLVFRQLAPNVWQHTSYLDMPGFGAVASNGLIVRDGGRVLVVDTAWTDDQTAQILNWIKQEINLPVALAVVTHAHQDKMGGMDALHAAGIATYANALSNQLAPQEGMVAAQHSLTFAANGWVEPATAPNFGPLKVFYPGPGHTSDNITVGIDGTDIAFGGCLIKDSKAKSLGNLGDADTEHYAASARAFGAAFPKASMIVMSHSAPDSRAAITHTARMADKLR

How the values were obtained:
Format in all cases: biochemical
[1] = substrate: CC(C)(O/N=C(\C(=O)N[C@@H]1C(=O)N2C(C(=O)[O-])=C(C[N+]3(CCNC(=O)c4ccc(O)c(O)c4Cl)CCCC3)CS[C@H]12)c1csc(N)n1)C(=O)O; experiment: Steady-state hydrolysis kinetics and UV difference spectra with purified IMP-1; conditions: other: FDC hydrolysis by IMP-1, 30 °C, pH 7.5
[2] = substrate: CC(C)(O/N=C(\C(=O)N[C@@H]1C(=O)N2C(C(=O)[O-])=C(C[n+]3ccccc3)CS[C@H]12)c1csc(N)n1)C(=O)O; experiment: Steady-state hydrolysis kinetics and UV difference spectra with purified NDM-1; conditions: other: substrate hydrolysis by NDM-1, 30 °C, pH 7.5
[3] = substrate: CC(C)(O/N=C(\C(=O)N[C@@H]1C(=O)N2C(C(=O)[O-])=C(C[N+]3(CCNC(=O)c4ccc(O)c(O)c4Cl)CCCC3)CS[C@H]12)c1csc(N)n1)C(=O)O; experiment: as above; conditions: other: substrate hydrolysis by NDM-1, 30 °C, pH 7.5

Protein | kcat [1] [s⁻¹] | kcat [2] [s⁻¹] | kcat/Km [2] [M⁻¹ s⁻¹] | kcat [3] [s⁻¹]
B1 | 1.25 ± 0.23 | – | – | –
B2 | – | 187 ± 13 | 4.16e+06 | 84 ± 11

— PMC12152739
